B1: Pistol ribozyme (parent)
chain: GGGUCGUUGUUCCAUAAUCGCGUGGAUAUGGCACGCAAGUUUCUACCGGGCACCGUAAAUGUCCGACUGGAGCCGUUCGGGCGGCUAUAAACAGACCUCAGGCCCGAAGCGUGGCGGCACCUGCCGCCGGUGGUAAAAAAGAUCGGAAGAGCACACGUCU

Variants of: B1
Assay: aptazyme ON/OFF ratio, guanine; higher = stronger switching; co-transcriptional cleavage with and without guanine

| Variant | aptazyme ON/OFF ratio |
| --- | --- |
| GGGUCGAGUAAAUAUAAUCGCGUGGAUAUGGCACGCAAGUUUCUACCGGGCACCGUAAAUGUCCGACUGGAGCCGUUCGGGCGGCUAUAAACAGACCUCAGGCCCGAAGCGUGGCGGCACCUGCCGCCGGUGGUAAAAAAGAUCGGAAGAGCACACGUCU [U7A U8G G9U U10A U11A C12A C13U] | 1.42 |
| GGGUCGCGGCUGCAUAAUCGCGUGGAUAUGGCACGCAAGUUUCUACCGGGCACCGUAAAUGUCCGACUGGAGCCGUUCGGGCGGCUAUAAACAGACCUCAGGCCCGAAGCGUGGCGGCACCUGCCGCCGGUGGUAAAAAAGAUCGGAAGAGCACACGUCU [U7C U8G U10C C12G] | 2.01 |
| GGGUCGAUACCUUAUAAUCGCGUGGAUAUGGCACGCAAGUUUCUACCGGGCACCGUAAAUGUCCGACUGGAGCCGUUCGGGCGGCUAUAAACAGACCUCAGGCCCGAAGCGUGGCGGCACCUGCCGCCGGUGGUAAAAAAGAUCGGAAGAGCACACGUCU [U7A G9A U10C U11C C12U C13U] | 1.04 |
| GGGUCGCACUCGAAUAAUCGCGUGGAUAUGGCACGCAAGUUUCUACCGGGCACCGUAAAUGUCCGACUGGAGCCGUUCGGGCGGCUAUAAACAGACCUCAGGCCCGAAGCGUGGCGGCACCUGCCGCCGGUGGUAAAAAAGAUCGGAAGAGCACACGUCU [U7C U8A G9C U11C C12G C13A] | 1.07 |
| GGGUCGCACAAUAAUAAUCGCGUGGAUAUGGCACGCAAGUUUCUACCGGGCACCGUAAAUGUCCGACUGGAGCCGUUCGGGCGGCUAUAAACAGACCUCAGGCCCGAAGCGUGGCGGCACCUGCCGCCGGUGGUAAAAAAGAUCGGAAGAGCACACGUCU [U7C U8A G9C U10A U11A C12U C13A] | 1.05 |
| GGGUCGCUGCCACAUAAUCGCGUGGAUAUGGCACGCAAGUUUCUACCGGGCACCGUAAAUGUCCGACUGGAGCCGUUCGGGCGGCUAUAAACAGACCUCAGGCCCGAAGCGUGGCGGCACCUGCCGCCGGUGGUAAAAAAGAUCGGAAGAGCACACGUCU [U7C U10C U11C C12A] | 1.29 |
| GGGUCGAAAAUGAAUAAUCGCGUGGAUAUGGCACGCAAGUUUCUACCGGGCACCGUAAAUGUCCGACUGGAGCCGUUCGGGCGGCUAUAAACAGACCUCAGGCCCGAAGCGUGGCGGCACCUGCCGCCGGUGGUAAAAAAGAUCGGAAGAGCACACGUCU [U7A U8A G9A U10A C12G C13A] | 1.24 |
| GGGUCGUCAAUAGAUAAUCGCGUGGAUAUGGCACGCAAGUUUCUACCGGGCACCGUAAAUGUCCGACUGGAGCCGUUCGGGCGGCUAUAAACAGACCUCAGGCCCGAAGCGUGGCGGCACCUGCCGCCGGUGGUAAAAAAGAUCGGAAGAGCACACGUCU [U8C G9A U10A C12A C13G] | 1.13 |
| GGGUCGGGUAGACAUAAUCGCGUGGAUAUGGCACGCAAGUUUCUACCGGGCACCGUAAAUGUCCGACUGGAGCCGUUCGGGCGGCUAUAAACAGACCUCAGGCCCGAAGCGUGGCGGCACCUGCCGCCGGUGGUAAAAAAGAUCGGAAGAGCACACGUCU [U7G U8G G9U U10A U11G C12A] | 1.03 |
| GGGUCGAAAGACUAUAAUCGCGUGGAUAUGGCACGCAAGUUUCUACCGGGCACCGUAAAUGUCCGACUGGAGCCGUUCGGGCGGCUAUAAACAGACCUCAGGCCCGAAGCGUGGCGGCACCUGCCGCCGGUGGUAAAAAAGAUCGGAAGAGCACACGUCU [U7A U8A G9A U10G U11A C13U] | 0.974 |
| GGGUCGACUUGCGAUAAUCGCGUGGAUAUGGCACGCAAGUUUCUACCGGGCACCGUAAAUGUCCGACUGGAGCCGUUCGGGCGGCUAUAAACAGACCUCAGGCCCGAAGCGUGGCGGCACCUGCCGCCGGUGGUAAAAAAGAUCGGAAGAGCACACGUCU [U7A U8C G9U U11G C13G] | 1.12 |
| GGGUCGACUAAUCAUAAUCGCGUGGAUAUGGCACGCAAGUUUCUACCGGGCACCGUAAAUGUCCGACUGGAGCCGUUCGGGCGGCUAUAAACAGACCUCAGGCCCGAAGCGUGGCGGCACCUGCCGCCGGUGGUAAAAAAGAUCGGAAGAGCACACGUCU [U7A U8C G9U U10A U11A C12U] | 1.12 |
| GGGUCGCAGCGCCAUAAUCGCGUGGAUAUGGCACGCAAGUUUCUACCGGGCACCGUAAAUGUCCGACUGGAGCCGUUCGGGCGGCUAUAAACAGACCUCAGGCCCGAAGCGUGGCGGCACCUGCCGCCGGUGGUAAAAAAGAUCGGAAGAGCACACGUCU [U7C U8A U10C U11G] | 1.34 |
| GGGUCGGUUGCUGAUAAUCGCGUGGAUAUGGCACGCAAGUUUCUACCGGGCACCGUAAAUGUCCGACUGGAGCCGUUCGGGCGGCUAUAAACAGACCUCAGGCCCGAAGCGUGGCGGCACCUGCCGCCGGUGGUAAAAAAGAUCGGAAGAGCACACGUCU [U7G G9U U10G U11C C12U C13G] | 1.25 |
| GGGUCGUGCCGCUAUAAUCGCGUGGAUAUGGCACGCAAGUUUCUACCGGGCACCGUAAAUGUCCGACUGGAGCCGUUCGGGCGGCUAUAAACAGACCUCAGGCCCGAAGCGUGGCGGCACCUGCCGCCGGUGGUAAAAAAGAUCGGAAGAGCACACGUCU [U8G G9C U10C U11G C13U] | 1.16 |
| GGGUCGAAUUCUUAUAAUCGCGUGGAUAUGGCACGCAAGUUUCUACCGGGCACCGUAAAUGUCCGACUGGAGCCGUUCGGGCGGCUAUAAACAGACCUCAGGCCCGAAGCGUGGCGGCACCUGCCGCCGGUGGUAAAAAAGAUCGGAAGAGCACACGUCU [U7A U8A G9U U11C C12U C13U] | 1.32 |
| GGGUCGCACGUAAAUAAUCGCGUGGAUAUGGCACGCAAGUUUCUACCGGGCACCGUAAAUGUCCGACUGGAGCCGUUCGGGCGGCUAUAAACAGACCUCAGGCCCGAAGCGUGGCGGCACCUGCCGCCGGUGGUAAAAAAGAUCGGAAGAGCACACGUCU [U7C U8A G9C U10G C12A C13A] | 1.23 |
| GGGUCGGGACCGAAUAAUCGCGUGGAUAUGGCACGCAAGUUUCUACCGGGCACCGUAAAUGUCCGACUGGAGCCGUUCGGGCGGCUAUAAACAGACCUCAGGCCCGAAGCGUGGCGGCACCUGCCGCCGGUGGUAAAAAAGAUCGGAAGAGCACACGUCU [U7G U8G G9A U10C U11C C12G C13A] | 1.16 |

| Variant | aptazyme ON/OFF ratio |
| --- | --- |
| GGGUCGACGUAAUAUAAUCGCGUGGAUAUGGCACGCAAGUUUCUACCGGGCACCGUAAAUGUCCGACUGGAGCCGUUCGGGCGGCUAUAAACAGACCUCAGGCCCGAAGCGUGGCGGCACCUGCCGCCGGUGGUAAAAAAGAUCGGAAGAGCACACGUCU [U7A U8C U11A C12A C13U] | 1.27 |
| GGGUCGCGUCUUUAUAAUCGCGUGGAUAUGGCACGCAAGUUUCUACCGGGCACCGUAAAUGUCCGACUGGAGCCGUUCGGGCGGCUAUAAACAGACCUCAGGCCCGAAGCGUGGCGGCACCUGCCGCCGGUGGUAAAAAAGAUCGGAAGAGCACACGUCU [U7C U8G G9U U10C C12U C13U] | 1.38 |
| GGGUCGAGGCGGGAUAAUCGCGUGGAUAUGGCACGCAAGUUUCUACCGGGCACCGUAAAUGUCCGACUGGAGCCGUUCGGGCGGCUAUAAACAGACCUCAGGCCCGAAGCGUGGCGGCACCUGCCGCCGGUGGUAAAAAAGAUCGGAAGAGCACACGUCU [U7A U8G U10C U11G C12G C13G] | 1.35 |
| GGGUCGCGGCAUGAUAAUCGCGUGGAUAUGGCACGCAAGUUUCUACCGGGCACCGUAAAUGUCCGACUGGAGCCGUUCGGGCGGCUAUAAACAGACCUCAGGCCCGAAGCGUGGCGGCACCUGCCGCCGGUGGUAAAAAAGAUCGGAAGAGCACACGUCU [U7C U8G U10C U11A C12U C13G] | 1.11 |
| GGGUCGGCUCCCUAUAAUCGCGUGGAUAUGGCACGCAAGUUUCUACCGGGCACCGUAAAUGUCCGACUGGAGCCGUUCGGGCGGCUAUAAACAGACCUCAGGCCCGAAGCGUGGCGGCACCUGCCGCCGGUGGUAAAAAAGAUCGGAAGAGCACACGUCU [U7G U8C G9U U10C U11C C13U] | 1.52 |
| GGGUCGGAAAUUCAUAAUCGCGUGGAUAUGGCACGCAAGUUUCUACCGGGCACCGUAAAUGUCCGACUGGAGCCGUUCGGGCGGCUAUAAACAGACCUCAGGCCCGAAGCGUGGCGGCACCUGCCGCCGGUGGUAAAAAAGAUCGGAAGAGCACACGUCU [U7G U8A G9A U10A C12U] | 1.19 |
| GGGUCGGUGUCAGAUAAUCGCGUGGAUAUGGCACGCAAGUUUCUACCGGGCACCGUAAAUGUCCGACUGGAGCCGUUCGGGCGGCUAUAAACAGACCUCAGGCCCGAAGCGUGGCGGCACCUGCCGCCGGUGGUAAAAAAGAUCGGAAGAGCACACGUCU [U7G U11C C12A C13G] | 1.1 |
| GGGUCGGUCAUCAAUAAUCGCGUGGAUAUGGCACGCAAGUUUCUACCGGGCACCGUAAAUGUCCGACUGGAGCCGUUCGGGCGGCUAUAAACAGACCUCAGGCCCGAAGCGUGGCGGCACCUGCCGCCGGUGGUAAAAAAGAUCGGAAGAGCACACGUCU [U7G G9C U10A C13A] | 1.2 |
| GGGUCGGAAAAAAAUAAUCGCGUGGAUAUGGCACGCAAGUUUCUACCGGGCACCGUAAAUGUCCGACUGGAGCCGUUCGGGCGGCUAUAAACAGACCUCAGGCCCGAAGCGUGGCGGCACCUGCCGCCGGUGGUAAAAAAGAUCGGAAGAGCACACGUCU [U7G U8A G9A U10A U11A C12A C13A] | 1.09 |
| GGGUCGUGACGACAUAAUCGCGUGGAUAUGGCACGCAAGUUUCUACCGGGCACCGUAAAUGUCCGACUGGAGCCGUUCGGGCGGCUAUAAACAGACCUCAGGCCCGAAGCGUGGCGGCACCUGCCGCCGGUGGUAAAAAAGAUCGGAAGAGCACACGUCU [U8G G9A U10C U11G C12A] | 1.06 |
| GGGUCGACCGCAAAUAAUCGCGUGGAUAUGGCACGCAAGUUUCUACCGGGCACCGUAAAUGUCCGACUGGAGCCGUUCGGGCGGCUAUAAACAGACCUCAGGCCCGAAGCGUGGCGGCACCUGCCGCCGGUGGUAAAAAAGAUCGGAAGAGCACACGUCU [U7A U8C G9C U10G U11C C12A C13A] | 1.05 |
| GGGUCGUUUCGUGAUAAUCGCGUGGAUAUGGCACGCAAGUUUCUACCGGGCACCGUAAAUGUCCGACUGGAGCCGUUCGGGCGGCUAUAAACAGACCUCAGGCCCGAAGCGUGGCGGCACCUGCCGCCGGUGGUAAAAAAGAUCGGAAGAGCACACGUCU [G9U U10C U11G C12U C13G] | 1.34 |
| GGGUCGUCAGGUCAUAAUCGCGUGGAUAUGGCACGCAAGUUUCUACCGGGCACCGUAAAUGUCCGACUGGAGCCGUUCGGGCGGCUAUAAACAGACCUCAGGCCCGAAGCGUGGCGGCACCUGCCGCCGGUGGUAAAAAAGAUCGGAAGAGCACACGUCU [U8C G9A U10G U11G C12U] | 1.24 |
| GGGUCGCCAGACAAUAAUCGCGUGGAUAUGGCACGCAAGUUUCUACCGGGCACCGUAAAUGUCCGACUGGAGCCGUUCGGGCGGCUAUAAACAGACCUCAGGCCCGAAGCGUGGCGGCACCUGCCGCCGGUGGUAAAAAAGAUCGGAAGAGCACACGUCU [U7C U8C G9A U10G U11A C13A] | 1.1 |
| GGGUCGUCUCUGUAUAAUCGCGUGGAUAUGGCACGCAAGUUUCUACCGGGCACCGUAAAUGUCCGACUGGAGCCGUUCGGGCGGCUAUAAACAGACCUCAGGCCCGAAGCGUGGCGGCACCUGCCGCCGGUGGUAAAAAAGAUCGGAAGAGCACACGUCU [U8C G9U U10C C12G C13U] | 1.24 |
| GGGUCGUCACGACAUAAUCGCGUGGAUAUGGCACGCAAGUUUCUACCGGGCACCGUAAAUGUCCGACUGGAGCCGUUCGGGCGGCUAUAAACAGACCUCAGGCCCGAAGCGUGGCGGCACCUGCCGCCGGUGGUAAAAAAGAUCGGAAGAGCACACGUCU [U8C G9A U10C U11G C12A] | 1.25 |
| GGGUCGCAGGUGGAUAAUCGCGUGGAUAUGGCACGCAAGUUUCUACCGGGCACCGUAAAUGUCCGACUGGAGCCGUUCGGGCGGCUAUAAACAGACCUCAGGCCCGAAGCGUGGCGGCACCUGCCGCCGGUGGUAAAAAAGAUCGGAAGAGCACACGUCU [U7C U8A U10G C12G C13G] | 1.15 |
| GGGUCGGGGGCCGAUAAUCGCGUGGAUAUGGCACGCAAGUUUCUACCGGGCACCGUAAAUGUCCGACUGGAGCCGUUCGGGCGGCUAUAAACAGACCUCAGGCCCGAAGCGUGGCGGCACCUGCCGCCGGUGGUAAAAAAGAUCGGAAGAGCACACGUCU [U7G U8G U10G U11C C13G] | 1.29 |
